{"source": "patent US20190100588A1", "about": "(VISTERRA, published 2019)", "key": {"Peptide 6E": {"molecular_target": "T1, Peptide 6E (human, biotin at the amino terminus)", "T1 construct": "also called Pep6e", "T1 peptide": "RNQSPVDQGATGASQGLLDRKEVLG", "assay": "bio-layer interferometry, biotinylated peptide"}, "Peptide 2C": {"molecular_target": "T2, Peptide 2C (human, biotin at the amino terminus)", "T2 construct": "also called Pep2c", "T2 peptide": "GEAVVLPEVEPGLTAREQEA", "assay": "bio-layer interferometry, biotinylated peptide"}, "Peptide 6B [1]": {"molecular_target": "T3, Peptide 6B (human, biotin at the amino terminus)", "T3 construct": "also called Pep6b", "T3 peptide": "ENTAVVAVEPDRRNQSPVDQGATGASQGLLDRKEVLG", "assay": "bio-layer interferometry, biotinylated peptide"}, "[2]": {"molecular_target": "T4, cell surface CD138 (human CD138) (human, UniProt P18827 23-310)", "T4 construct": "whole, on cells; also called membrane CD138", "T4 sequence (looked up)": "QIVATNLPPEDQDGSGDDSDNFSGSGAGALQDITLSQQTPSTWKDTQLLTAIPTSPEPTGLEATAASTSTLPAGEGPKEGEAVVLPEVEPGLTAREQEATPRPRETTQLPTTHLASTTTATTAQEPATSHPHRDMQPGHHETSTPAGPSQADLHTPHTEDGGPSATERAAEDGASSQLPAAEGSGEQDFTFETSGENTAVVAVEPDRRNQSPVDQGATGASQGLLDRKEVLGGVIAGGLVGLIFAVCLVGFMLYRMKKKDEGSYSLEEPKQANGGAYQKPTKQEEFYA", "assay": "flow cytometry, U266 cells", "method": "(§1) Binding of anti-CD138 antibodies to CD138 was tested by flow cytometry binding assay. Multiple myeloma cell lines RPMI 8226 (ATCC) and U266 (ATCC) were grown in RPMI1640 with 10% FBS. On the day of experiment, 0.25×10⁶ cells were washed with FACS buffer (PBS+0.5% BSA) and incubated with dilution series of anti-CD138 antibodies (starting 10 ug/ml) or hybridoma supernatants (starting with undiluted supernatant) for 30 min at 4° C. followed by incubation with goat-anti-human/mouse conjugated APC antibodies (BioLegend) for 30 min at 4° C. Fluorescence was detected using flow cytometer.\n(§2) The afucosylated antibody variants were then tested for capacity to induce ADCC, as described above."}, "Pep6 [3]": {"molecular_target": "T5, Pep6 (human)", "T5 construct": "also called Peptide 6; Peptide-6", "T5 peptide": "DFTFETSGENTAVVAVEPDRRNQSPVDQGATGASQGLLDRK", "assay": "peptide binding ELISA", "method": "(§3) As above, the monoclonal antibodies were tested for binding to a series of CD138 peptides in four-fold serial dilutions starting at 1 μg/mL. […] HRP-conjugated anti-human IgG-Fc antibody (1:5000 dilution) was used for detection. Antibody B-B4 was also tested as a reference. […] Reference antibody B-B4 only bound to Peptide 2a."}, "Peptide 2a [4]": {"molecular_target": "T6, Peptide 2a (human)", "T6 construct": "also called Pep2a", "T6 peptide": "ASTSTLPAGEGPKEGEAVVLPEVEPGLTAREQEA", "assay": "peptide binding ELISA", "method": "as §3"}, "[5]": {"molecular_target": "T7, recombinant CD138 extracellular domain (soluble CD138) (human, UniProt P18827 23-250)", "T7 construct": "also called soluble CD138 extracellular domain; biotinylated CD138", "T7 sequence": "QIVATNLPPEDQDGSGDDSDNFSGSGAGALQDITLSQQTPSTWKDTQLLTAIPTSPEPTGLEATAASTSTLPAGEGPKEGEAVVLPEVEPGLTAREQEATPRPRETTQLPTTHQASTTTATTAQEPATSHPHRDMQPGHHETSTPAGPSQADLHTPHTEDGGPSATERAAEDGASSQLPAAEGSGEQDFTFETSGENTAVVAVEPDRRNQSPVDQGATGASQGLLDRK", "assay": "ELISA, soluble CD138", "method": "(§4) Antibody B-B4 was included as a reference. Briefly, the monoclonal antibodies were tested for binding to recombinant CD138 extracellular domain consisting of amino acids 23-254 of human CD138, in four-fold serial dilutions starting at 1 μg/mL. HRP-conjugated anti-human IgG-Fc antibody (1:5000 dilution) was used for detection."}, "Peptide 2a [6]": {"molecular_target": "T6, Peptide 2a", "assay": "ELISA (FIG. 18B)"}, "[7]": {"molecular_target": "T7, recombinant CD138 extracellular domain …", "assay": "ELISA (FIG. 18A)"}, "[8]": {"molecular_target": "T4, cell surface CD138 (human CD138)", "assay": "flow cytometry, U266 cells, afucosylated antibody", "method": "as §1, §2"}, "Pep6 [9]": {"molecular_target": "T5, Pep6", "assay": "ELISA (FIG. 18C)"}, "Peptide 6B [10]": {"molecular_target": "T3, Peptide 6B", "assay": "ELISA with captured antibody (FIG. 21); also bio-layer interferometry (FIG. 22A)", "method": "Briefly, biotinylated peptides (Peptides 2A, 2D, 6B, and 6F; sequences shown in FIG. 22C) were used at 50 nM and captured on streptavidin capture biosensors. Antibodies were then run over the captured peptides at concentrations of 25 nM to 6.25 nM."}, "[11]": {"molecular_target": "T7, recombinant CD138 extracellular domain …", "assay": "ELISA, recombinant CD138 extracellular domain", "method": "as §4"}, "Pep5": {"molecular_target": "T8, Pep5 (human)", "T8 construct": "also called Peptide 5", "T8 peptide": "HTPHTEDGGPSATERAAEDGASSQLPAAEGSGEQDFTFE", "assay": "peptide binding ELISA", "method": "as §3"}, "mutated CD138 Clone 5": {"molecular_target": "T9, mutated CD138 Clone 5 (human, UniProt P18827 23-310)", "T9 construct": "Leu107, Pro108, Glu109 mutated to Ala; Expressed on Expi293 cells", "T9 chain": "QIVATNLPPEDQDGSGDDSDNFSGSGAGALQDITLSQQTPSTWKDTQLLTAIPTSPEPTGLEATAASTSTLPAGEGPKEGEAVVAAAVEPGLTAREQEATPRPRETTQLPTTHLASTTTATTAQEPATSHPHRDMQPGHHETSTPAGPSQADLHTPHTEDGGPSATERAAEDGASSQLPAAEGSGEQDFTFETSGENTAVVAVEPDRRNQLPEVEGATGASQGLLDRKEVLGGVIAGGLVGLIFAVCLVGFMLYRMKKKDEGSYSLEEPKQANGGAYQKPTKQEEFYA", "assay": "staining of Expi293 cells expressing the CD138 variant"}, "mutated CD138 Clone 4": {"molecular_target": "T10, mutated CD138 Clone 4 (human, UniProt P18827 23-310)", "T10 construct": "Leu107, Pro108, Glu109 mutated to Ala; Expressed on Expi293 cells", "T10 chain": "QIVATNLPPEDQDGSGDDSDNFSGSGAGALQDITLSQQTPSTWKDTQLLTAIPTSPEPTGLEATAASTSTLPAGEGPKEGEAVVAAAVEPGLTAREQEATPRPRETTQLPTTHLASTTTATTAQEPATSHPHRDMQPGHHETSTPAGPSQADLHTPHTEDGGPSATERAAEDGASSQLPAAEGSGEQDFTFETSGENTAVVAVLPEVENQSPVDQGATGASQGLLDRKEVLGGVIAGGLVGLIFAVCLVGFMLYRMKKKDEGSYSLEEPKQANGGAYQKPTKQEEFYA", "assay": "staining of Expi293 cells expressing the CD138 variant"}, "mutated CD138 Clone 1": {"molecular_target": "T11, mutated CD138 Clone 1 (human, UniProt P18827 23-310)", "T11 construct": "Leu107, Pro108, Glu109 of the original site mutated to Ala; Expressed on Expi293 cells", "T11 chain": "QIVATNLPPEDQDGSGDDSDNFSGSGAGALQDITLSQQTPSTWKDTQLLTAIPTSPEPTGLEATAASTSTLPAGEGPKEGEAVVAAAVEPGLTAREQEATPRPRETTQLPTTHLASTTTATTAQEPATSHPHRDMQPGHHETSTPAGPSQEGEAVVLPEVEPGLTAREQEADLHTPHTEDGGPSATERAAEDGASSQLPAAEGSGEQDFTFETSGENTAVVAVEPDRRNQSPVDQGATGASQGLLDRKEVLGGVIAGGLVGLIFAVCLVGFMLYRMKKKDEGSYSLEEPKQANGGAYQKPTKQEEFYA", "assay": "staining of Expi293 cells expressing the CD138 variant"}, "mutated CD138 Clone 2": {"molecular_target": "T12, mutated CD138 Clone 2 (human, UniProt P18827 23-310)", "T12 construct": "Leu107, Pro108, Glu109 mutated to Ala; Expressed on Expi293 cells", "T12 chain": "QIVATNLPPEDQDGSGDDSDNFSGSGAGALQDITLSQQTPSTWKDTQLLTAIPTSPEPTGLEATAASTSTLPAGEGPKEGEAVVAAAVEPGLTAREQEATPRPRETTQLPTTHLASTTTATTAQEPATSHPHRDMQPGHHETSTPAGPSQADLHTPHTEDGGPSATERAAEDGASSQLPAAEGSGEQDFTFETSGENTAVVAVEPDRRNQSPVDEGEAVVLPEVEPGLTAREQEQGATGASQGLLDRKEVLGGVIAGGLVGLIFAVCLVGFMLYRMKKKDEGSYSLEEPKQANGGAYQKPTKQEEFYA", "assay": "staining of Expi293 cells expressing the CD138 variant"}}, "data": [{"binder": "antibody 1610 (antibody, V domains shown, Chimeric monoclonal antibody, murine variable regions and human IgG1) VH: QVQLHQPGTSLVKPGASVKLSCKASGYNFSSYYMHWVKQRPGQGLEWIGTIHPSDSTTNCNQKFKGKATLTVDKSSRTAYMQLNSLTFEDSAVYYCANFVYWGQGTSVTVSS VL: DIVITQDELSNPVTSGDSVSISCRSSKSLLYKDGKTYLNWFLQRPGQSPQLLIYVVSTRASGVSDRFSGSGSGTDFTLEISRVKAEDVGVYYCQQLVEYPYTFGGGTKLEIK", "values": [{"measurement": "binding result", "setting": "Peptide 6E", "result": "no binding"}, {"measurement": "binding result", "setting": "Peptide 2C", "result": "binds"}, {"measurement": "binding result", "setting": "Peptide 6B [1]", "result": "binds"}, {"measurement": "EC50", "setting": "[2]", "result": 0.0019, "unit": "µg/mL"}, {"measurement": "binding result", "setting": "Pep6 [3]", "result": "binds"}, {"measurement": "binding result", "setting": "Peptide 2a [4]", "result": "binds"}, {"measurement": "EC50", "setting": "[5]", "result": 0.394, "unit": "µg/mL"}]}, {"binder": "antibody 2810 (antibody, V domains shown) VH: QVQLHQPGTSLVKPGASVKLSCKASGYSFSSYYMHWVKQRPGQGLEWIGTIHPSDSTTNYNQKFKGKATLTVDKSSRTAYMQLNSLTFEDSAVYYCANFVYWGQGTSVTVSS VL: DIVITQDELSNPVTSGDSVSISCRSSKSLLYKDGKTYLNWFLQRPGQSPQLLIYVVSTRASGVSDRFSGSGSGTDFTLEISRVKAEDVGVYYCQQLVEYPYTFGGGTKLEIK", "values": [{"measurement": "binding result", "setting": "Peptide 2a [6]", "result": "binds"}, {"measurement": "binding result", "setting": "[7]", "result": "binds"}, {"measurement": "binding result", "setting": "[8]", "result": "binds"}, {"measurement": "binding result", "setting": "Pep6 [9]", "result": "binds"}, {"measurement": "binding result", "setting": "Peptide 6B [10]", "result": "binds"}]}, {"binder": "antibody CD002 (antibody, V domains shown) VH: QVQLQQPGAELVKPGASVKLSCKASGFSFITYWMNWIKQRPGRGLEWIGRIHPSDSATQYNQKFKTKATLTVDKSSSTAYIQLSSLTSEDSAVYYCARSTEGAHWGQGTLVTVSA VL: not shown", "values": [{"measurement": "binding result", "setting": "[11]", "result": "binds"}, {"measurement": "binding result", "setting": "Pep5", "result": "binds"}]}, {"binder": "antibody B-B4 (antibody, V domains shown, detected with anti-human IgG-Fc; afucosylated and biotinylated versions also used; also called B-B4-IgG1; MAb B-B4) VH: QVQLQQSGSELMMPGASVKISCKATGYTFSNYWIEWVKQRPGHGLEWIGEILPGTGRTIYNEKFKGKATFTADISSNTVQMQLSSLTSEDSAVYYCARRDYYGNFYYAMDYWGQGTSVTVSS VL: DIQMTQSTSSLSASLGDRVTISCSASQGINNYLNWYQQKPDGTVELLIYYTSTLQSGVPSRFSGSGSGTDYSLTISNLEPEDIGTYYCQQYSKLPRTFGGGTKLEIK", "values": [{"measurement": "binding result", "setting": "Peptide 6B [1]", "result": "no binding"}, {"measurement": "binding result", "setting": "mutated CD138 Clone 5", "result": "binds"}, {"measurement": "binding result", "setting": "mutated CD138 Clone 4", "result": "binds"}, {"measurement": "binding result", "setting": "mutated CD138 Clone 1", "result": "binds"}, {"measurement": "binding result", "setting": "mutated CD138 Clone 2", "result": "binds"}, {"measurement": "binding result", "setting": "Peptide 2a [4]", "result": "binds"}]}]}
